Two variants from IntAct's records for PubMed 9605924 can be followed below.

B1: Thyroid hormone receptor beta (Homo sapiens), P10828-1 (parent)
chain: MTPNSMTENGLTAWDKPKHCPDREHDWKLVGMSEACLHRKSHSERRSTLKNEQSSPHLIQTTWTSSIFHLDHDDVNDQSVSSAQTFQTEEKKCKGYIPSYLDKDELCVVCGDKATGYHYRCITCEGCKGFFRRTIQKNLHPSYSCKYEGKCVIDKVTRNQCQECRFKKCIYVGMATDLVLDDSKRLAKRKLIEENREKRRREELQKSIGHKPEPTDEEWELIKTVTEAHVATNAQGSHWKQKRKFLPEDIGQAPIVNAPEGGKVDLEAFSHFTKIITPAITRVVDFAKKLPMFCELPCEDQIILLKGCCMEIMSLRAAVRYDPESETLTLNGEMAVTRGQLKNGGLGVVSDAIFDLGMSLSSFNLDDTEVALLQAVLLMSSDRPGLACVERIEKYQDSFLLAFEHYINYRKHHVTHFWPKLLMKVTDLRMIGACHASRFLHMKVECPTELFPPLFLEVFED

Variants of B1 are the subject of assay [1]. As to conditions: with ncor2_human NCOR2, Q9Y618.
Chain of ncor2_human NCOR2, Q9Y618 (Q9Y618 whole entry): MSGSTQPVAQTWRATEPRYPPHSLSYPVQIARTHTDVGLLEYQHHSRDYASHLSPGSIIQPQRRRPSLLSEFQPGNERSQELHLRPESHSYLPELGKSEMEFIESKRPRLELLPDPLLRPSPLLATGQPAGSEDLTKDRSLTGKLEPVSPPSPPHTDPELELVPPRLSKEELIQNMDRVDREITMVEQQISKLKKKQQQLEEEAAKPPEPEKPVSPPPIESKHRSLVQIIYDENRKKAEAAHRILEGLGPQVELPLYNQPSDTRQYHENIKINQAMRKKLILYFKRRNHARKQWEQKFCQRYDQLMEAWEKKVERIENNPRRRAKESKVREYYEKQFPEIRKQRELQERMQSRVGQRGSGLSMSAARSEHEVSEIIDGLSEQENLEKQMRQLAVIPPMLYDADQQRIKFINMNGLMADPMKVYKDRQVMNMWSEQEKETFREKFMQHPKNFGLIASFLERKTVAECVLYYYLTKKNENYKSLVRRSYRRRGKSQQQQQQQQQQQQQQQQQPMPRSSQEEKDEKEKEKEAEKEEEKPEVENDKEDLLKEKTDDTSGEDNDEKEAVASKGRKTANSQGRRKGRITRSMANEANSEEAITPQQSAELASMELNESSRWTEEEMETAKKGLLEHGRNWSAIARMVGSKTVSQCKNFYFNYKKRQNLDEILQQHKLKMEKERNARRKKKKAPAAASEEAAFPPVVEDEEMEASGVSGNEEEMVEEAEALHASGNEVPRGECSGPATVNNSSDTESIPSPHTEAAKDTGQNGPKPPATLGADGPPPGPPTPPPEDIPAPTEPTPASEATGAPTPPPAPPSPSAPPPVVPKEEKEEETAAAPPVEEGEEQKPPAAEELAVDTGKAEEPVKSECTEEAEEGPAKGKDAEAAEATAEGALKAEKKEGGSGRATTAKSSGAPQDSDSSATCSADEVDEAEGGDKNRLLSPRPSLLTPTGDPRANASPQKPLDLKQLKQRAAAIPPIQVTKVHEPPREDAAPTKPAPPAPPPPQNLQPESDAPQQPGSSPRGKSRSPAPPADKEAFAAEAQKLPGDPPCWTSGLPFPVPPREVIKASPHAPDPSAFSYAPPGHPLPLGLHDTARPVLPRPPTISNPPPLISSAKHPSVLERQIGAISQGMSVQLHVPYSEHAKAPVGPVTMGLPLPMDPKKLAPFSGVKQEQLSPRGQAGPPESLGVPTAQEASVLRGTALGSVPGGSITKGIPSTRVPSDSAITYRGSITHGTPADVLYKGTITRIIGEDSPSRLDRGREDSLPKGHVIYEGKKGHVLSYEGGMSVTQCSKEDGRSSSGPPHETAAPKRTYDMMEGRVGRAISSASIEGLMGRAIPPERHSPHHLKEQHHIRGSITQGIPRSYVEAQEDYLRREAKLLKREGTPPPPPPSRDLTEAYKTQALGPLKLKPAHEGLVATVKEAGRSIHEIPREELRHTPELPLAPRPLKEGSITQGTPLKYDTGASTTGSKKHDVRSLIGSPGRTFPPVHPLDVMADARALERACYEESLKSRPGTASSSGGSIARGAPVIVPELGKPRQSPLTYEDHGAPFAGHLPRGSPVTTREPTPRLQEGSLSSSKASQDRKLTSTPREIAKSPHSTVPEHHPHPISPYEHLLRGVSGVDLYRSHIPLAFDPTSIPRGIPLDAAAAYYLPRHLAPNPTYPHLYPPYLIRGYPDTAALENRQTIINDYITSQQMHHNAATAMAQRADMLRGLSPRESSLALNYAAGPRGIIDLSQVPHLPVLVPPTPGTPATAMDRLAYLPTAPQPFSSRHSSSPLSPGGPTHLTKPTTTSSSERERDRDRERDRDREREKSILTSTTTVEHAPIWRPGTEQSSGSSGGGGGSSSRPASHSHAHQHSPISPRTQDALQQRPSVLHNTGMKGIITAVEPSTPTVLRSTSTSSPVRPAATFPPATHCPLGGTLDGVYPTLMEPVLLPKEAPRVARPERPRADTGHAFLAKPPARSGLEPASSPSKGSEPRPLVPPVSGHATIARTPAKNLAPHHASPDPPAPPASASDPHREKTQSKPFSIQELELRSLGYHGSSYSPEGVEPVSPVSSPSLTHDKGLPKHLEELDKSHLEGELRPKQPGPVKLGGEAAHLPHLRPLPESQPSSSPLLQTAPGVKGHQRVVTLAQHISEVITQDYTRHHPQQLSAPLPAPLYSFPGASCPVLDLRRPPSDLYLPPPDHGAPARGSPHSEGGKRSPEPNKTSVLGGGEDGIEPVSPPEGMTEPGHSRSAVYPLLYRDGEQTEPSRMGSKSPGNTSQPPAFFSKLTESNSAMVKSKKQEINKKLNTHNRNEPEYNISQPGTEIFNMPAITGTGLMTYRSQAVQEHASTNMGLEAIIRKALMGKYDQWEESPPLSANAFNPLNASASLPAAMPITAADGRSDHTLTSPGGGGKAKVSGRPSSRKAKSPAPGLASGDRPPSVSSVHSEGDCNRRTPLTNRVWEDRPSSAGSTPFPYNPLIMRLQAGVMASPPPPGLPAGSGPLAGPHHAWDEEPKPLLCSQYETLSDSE
Variants of B1 are the subject of assay [2]. As to conditions: with ncoa1_human NCOA1, Q15788.
Chain of ncoa1_human NCOA1, Q15788 (Q15788 whole entry): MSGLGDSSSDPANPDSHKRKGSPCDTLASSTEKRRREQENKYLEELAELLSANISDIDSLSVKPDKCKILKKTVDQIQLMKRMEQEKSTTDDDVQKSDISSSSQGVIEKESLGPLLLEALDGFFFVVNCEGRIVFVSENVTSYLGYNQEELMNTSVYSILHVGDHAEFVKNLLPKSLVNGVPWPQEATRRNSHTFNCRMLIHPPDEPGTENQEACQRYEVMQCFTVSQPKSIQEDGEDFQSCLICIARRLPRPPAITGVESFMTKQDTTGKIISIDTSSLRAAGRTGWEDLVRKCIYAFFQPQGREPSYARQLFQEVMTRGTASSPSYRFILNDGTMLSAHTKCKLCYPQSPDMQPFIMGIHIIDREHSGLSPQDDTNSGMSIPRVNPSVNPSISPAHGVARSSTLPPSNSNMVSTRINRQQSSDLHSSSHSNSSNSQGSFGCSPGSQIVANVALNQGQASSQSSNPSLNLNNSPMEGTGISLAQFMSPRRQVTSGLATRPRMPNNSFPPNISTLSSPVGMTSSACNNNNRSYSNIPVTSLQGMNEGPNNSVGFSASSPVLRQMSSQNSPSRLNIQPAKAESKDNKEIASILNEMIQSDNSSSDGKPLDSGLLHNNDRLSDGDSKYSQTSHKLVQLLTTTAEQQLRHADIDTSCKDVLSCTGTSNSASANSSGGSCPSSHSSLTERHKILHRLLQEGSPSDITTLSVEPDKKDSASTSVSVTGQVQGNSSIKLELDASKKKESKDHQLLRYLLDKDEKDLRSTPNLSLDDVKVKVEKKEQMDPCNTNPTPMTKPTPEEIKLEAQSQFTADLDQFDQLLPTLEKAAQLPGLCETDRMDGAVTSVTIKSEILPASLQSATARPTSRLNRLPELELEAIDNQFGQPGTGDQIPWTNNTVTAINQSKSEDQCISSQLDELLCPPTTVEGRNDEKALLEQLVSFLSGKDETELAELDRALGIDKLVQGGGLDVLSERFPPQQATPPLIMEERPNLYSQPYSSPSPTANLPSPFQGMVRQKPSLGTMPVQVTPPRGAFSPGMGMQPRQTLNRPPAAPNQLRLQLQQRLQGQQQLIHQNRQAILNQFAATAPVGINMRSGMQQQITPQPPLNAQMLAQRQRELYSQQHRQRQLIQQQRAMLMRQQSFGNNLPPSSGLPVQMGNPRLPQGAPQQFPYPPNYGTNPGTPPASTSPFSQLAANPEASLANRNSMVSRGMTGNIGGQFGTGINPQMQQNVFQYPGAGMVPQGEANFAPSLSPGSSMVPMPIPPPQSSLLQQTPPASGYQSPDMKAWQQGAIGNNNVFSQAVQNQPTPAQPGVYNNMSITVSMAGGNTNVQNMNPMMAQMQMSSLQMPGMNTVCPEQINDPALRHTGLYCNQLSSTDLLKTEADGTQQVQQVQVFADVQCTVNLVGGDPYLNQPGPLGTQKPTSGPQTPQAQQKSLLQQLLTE

As for R383H, the “effect of a mutation on the interaction” value in assay [1] and in assay [2] was “increasing interaction strength” in each case.
In the case of R429Q, the “effect of a mutation on the interaction” value in assay [1] and in assay [2] was “increasing interaction strength” throughout.
